In patent publication US20230303690A1 (published 2023):
Residue numbers refer to the chain shown, from its start. Read-outs that look alike come from different tables or passages of the source.

How the values were obtained:
[1] = molecular target: T1, human LAG3 expressed on cells (human, UniProt P18627 23-525); test: cell-based or functional assay
T1 sequence (looked up): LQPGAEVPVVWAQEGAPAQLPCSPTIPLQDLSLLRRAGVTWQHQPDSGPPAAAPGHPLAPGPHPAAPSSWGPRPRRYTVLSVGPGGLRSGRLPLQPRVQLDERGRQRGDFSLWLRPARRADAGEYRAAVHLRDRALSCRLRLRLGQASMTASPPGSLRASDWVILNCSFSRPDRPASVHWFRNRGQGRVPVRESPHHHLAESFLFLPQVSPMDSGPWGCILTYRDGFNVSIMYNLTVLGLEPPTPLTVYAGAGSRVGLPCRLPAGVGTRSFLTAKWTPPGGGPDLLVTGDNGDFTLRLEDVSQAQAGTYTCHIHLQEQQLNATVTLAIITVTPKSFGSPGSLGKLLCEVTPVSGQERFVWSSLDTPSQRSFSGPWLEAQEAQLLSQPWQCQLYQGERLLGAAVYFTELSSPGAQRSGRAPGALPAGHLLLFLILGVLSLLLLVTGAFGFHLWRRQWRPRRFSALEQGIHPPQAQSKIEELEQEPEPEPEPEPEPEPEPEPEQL

[2] = molecular target: T1, human LAG3 expressed on cells; test: cell-based or functional assay; remark: listed apart in the source
[3] = molecular target: T1, human LAG3 expressed on cells; test: cell-based or functional assay; remark: listed apart in the source
[4] = molecular target: T2, LAG3 Protein, Human, Recombinant (His Tag) (Sino Biological Catalog No. 16498-H08H) (human, UniProt P18627 23-450); test: SPR binning on LAG3-His; competitor 1
T2 construct: Bought protein; also called hLAG3-His; LAG3-His; not shown: His tag
T2 sequence (looked up): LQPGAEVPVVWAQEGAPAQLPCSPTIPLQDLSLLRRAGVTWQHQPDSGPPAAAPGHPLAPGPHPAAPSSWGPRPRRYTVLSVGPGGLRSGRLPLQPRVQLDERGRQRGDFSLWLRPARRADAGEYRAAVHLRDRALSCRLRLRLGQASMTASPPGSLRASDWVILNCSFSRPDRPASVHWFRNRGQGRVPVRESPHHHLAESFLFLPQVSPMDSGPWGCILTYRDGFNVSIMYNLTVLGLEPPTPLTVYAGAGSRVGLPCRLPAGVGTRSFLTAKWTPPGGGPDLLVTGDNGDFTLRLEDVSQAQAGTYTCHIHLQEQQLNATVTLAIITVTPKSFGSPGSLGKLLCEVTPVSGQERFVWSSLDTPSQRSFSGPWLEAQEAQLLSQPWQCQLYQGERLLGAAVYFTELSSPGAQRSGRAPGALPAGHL
Experimental: (§1) The chip surface was regenerated after each cycle with 25 mM NaOH followed by HBS-EP wash provided in the kit.

[5] = molecular target: T2, LAG3 Protein, Human, Recombinant (His …); test: SPR binning on LAG3-His; competitor 17
Experimental: as §1

[6] = molecular target: T2, LAG3 Protein, Human, Recombinant (His …); test: SPR binning on LAG3-His; competitor 18
Experimental: as §1

[7] = molecular target: T2, LAG3 Protein, Human, Recombinant (His …); test: SPR binning on LAG3-His; competitor 20
Experimental: as §1

[8] = molecular target: T2, LAG3 Protein, Human, Recombinant (His …); test: SPR binning on LAG3-His; competitor 21
Experimental: as §1

[9] = molecular target: T2, LAG3 Protein, Human, Recombinant (His …); test: SPR binning on LAG3-His; competitor 24
Experimental: as §1

[10] = molecular target: T2, LAG3 Protein, Human, Recombinant (His …); test: SPR binning on LAG3-His; competitor 25
Experimental: as §1

[11] = molecular target: T2, LAG3 Protein, Human, Recombinant (His …); test: SPR binning on LAG3-His; competitor 27
Experimental: as §1

[12] = molecular target: T2, LAG3 Protein, Human, Recombinant (His …); test: SPR binning on LAG3-His; competitor 37
Experimental: as §1

[13] = molecular target: T2, LAG3 Protein, Human, Recombinant (His …); test: SPR binning on LAG3-His; competitor 73
Experimental: as §1

[14] = molecular target: T2, LAG3 Protein, Human, Recombinant (His …); test: SPR binning on LAG3-His; competitor BMS
Experimental: as §1

[15] = molecular target: T2, LAG3 Protein, Human, Recombinant (His …); test: SPR (Biacore), sdAb captured by anti-human Fc, LAG3-His analyte
Experimental: The binding of the single domain antibodies to recombinant human LAG3 protein (rhLAG3) was examined by Biacore™ assay. […] The coating was carried out according to the manufacturer’s instructions accompanying the kit (Catalog No. BR-1008-39, GE). […] The chip surface was regenerated after each cycle with 25 mM NaOH followed by HBS-EP wash provided in the kit.

B1: sdAb No. 18 (VHH)
VHH: QVQLVESGGGLVQPGGSLRLSCAASGFTLNEHAIGWFRRAPGKEREGVSCISSSDGSTYYHDSVKGRFNMSRDDAKNSVYLQMSSLKPEDTAIYYCAAALGRDCQGGQWKTSSWGQGTQVTVSS
notes: Fc of the tested form not described; also called sdAb 18; not shown: Fc part implied by anti-human Fc capture
Q: B1 was tested. Which “IL-2, % of BMS, at 0.005080526 ug/mL” value [1] did it give?
A: 7.39%

Q: And the “IL-2, % of BMS, at 0.015241579 ug/mL” value [1]?
A: 10.9%

Q: And the “IL-2, % of BMS, at 0.045724737 ug/mL” value [1]?
A: 12.9%

Q: What about the “IL-2, % of BMS, at 0.137174211 ug/mL” value [1] of the same binder?
A: 5.27%

Q: What about the “IL-2, % of BMS, at 0.411522634 ug/mL” value [1] of the same binder?
A: 6.53%

Q: What about the “IL-2, % of BMS, at 1.234567901 ug/mL” value [1] of the same binder?
A: 15.5%

Q: And the “IL-2, % of BMS, at 3.703703704 ug/mL” value [1]?
A: 35.1%

Q: And the “IL-2, % of BMS, at 11.11111111 ug/mL” value [1]?
A: 45.5%

Q: What about the “IL-2, % of BMS, at 33.33333333 ug/mL” value [1] of the same binder?
A: 61.7%

Q: And the “IL-2, % of BMS, at 100 ug/mL” value [1]?
A: 60.9%

Q: What about the “EC50 for IL-2 rescue, hLAG3 Jurkat T system” value [2] of the same binder?
A: 60.6 nM

Q: What about the “Efficacy (IL-2 production, BMS = 100%)” value [2] of the same binder?
A: 51.9%

Q: And the “IL-2, % of BMS, at 0.005080526 ug/mL” value [3]?
A: 7.39%

Q: And the “IL-2, % of BMS, at 0.015241579 ug/mL” value [3]?
A: 10.9%

Q: And the “IL-2, % of BMS, at 0.045724737 ug/mL” value [3]?
A: 12.9%

Q: What about the “IL-2, % of BMS, at 0.137174211 ug/mL” value [3] of the same binder?
A: 5.27%

Q: What about the “IL-2, % of BMS, at 0.411522634 ug/mL” value [3] of the same binder?
A: 6.53%

Q: What about the “IL-2, % of BMS, at 1.234567901 ug/mL” value [3] of the same binder?
A: 15.5%

Q: What about the “IL-2, % of BMS, at 3.703703704 ug/mL” value [3] of the same binder?
A: 35.1%

Q: What about the “IL-2, % of BMS, at 11.11111111 ug/mL” value [3] of the same binder?
A: 45.5%

Q: And the “IL-2, % of BMS, at 33.33333333 ug/mL” value [3]?
A: 61.7%

Q: And the “IL-2, % of BMS, at 100 ug/mL” value [3]?
A: 60.9%

Q: What about the RU [4] of the same binder?
A: -9.5 RU

Q: And the RU [5]?
A: -14.7 RU

Q: And the RU [6]?
A: -9.1 RU

Q: And the RU [7]?
A: -13.4 RU

Q: What about the RU [8] of the same binder?
A: -11.4 RU

Q: What about the RU [9] of the same binder?
A: -9.9 RU

Q: What about the RU [10] of the same binder?
A: 274 RU

Q: And the RU [11]?
A: -5.3 RU

Q: What about the RU [12] of the same binder?
A: -8.5 RU

Q: What about the RU [13] of the same binder?
A: -11.1 RU

Q: What about the RU [14] of the same binder?
A: 26.9 RU

Q: And the koff [15]?
A: 3.69e-07 s⁻¹

Q: What about the kon [15] of the same binder?
A: 2.31e+06 M⁻¹ s⁻¹

B2: sdAb No. 24 (VHH)
VHH: B1 VHH with V2L, R39Q, N69T, S78T, S84N, P88A
notes: Fc of the tested form not described; also called sdAb 24; not shown: Fc part implied by anti-human Fc capture
Q: B2 was tested. Which “IL-2, % of BMS, at 0.005080526 ug/mL” value [1] did it give?
A: 10.7%

Q: What about the “IL-2, % of BMS, at 0.015241579 ug/mL” value [1] of the same binder?
A: 2.74%

Q: And the “IL-2, % of BMS, at 0.045724737 ug/mL” value [1]?
A: 3.44%

Q: What about the “IL-2, % of BMS, at 0.137174211 ug/mL” value [1] of the same binder?
A: 10.8%

Q: What about the “IL-2, % of BMS, at 0.411522634 ug/mL” value [1] of the same binder?
A: 1.26%

Q: And the “IL-2, % of BMS, at 1.234567901 ug/mL” value [1]?
A: 17.8%

Q: What about the “IL-2, % of BMS, at 3.703703704 ug/mL” value [1] of the same binder?
A: 34.9%

Q: And the “IL-2, % of BMS, at 11.11111111 ug/mL” value [1]?
A: 47.2%

Q: And the “IL-2, % of BMS, at 33.33333333 ug/mL” value [1]?
A: 57.7%

Q: What about the “IL-2, % of BMS, at 100 ug/mL” value [1] of the same binder?
A: 48.2%

Q: And the “EC50 for IL-2 rescue, hLAG3 Jurkat T system” value [2]?
A: 35.8 nM

Q: And the “Efficacy (IL-2 production, BMS = 100%)” value [2]?
A: 44.7%

Q: What about the RU [4] of the same binder?
A: -8.8 RU

Q: What about the RU [5] of the same binder?
A: -13.6 RU

Q: And the RU [6]?
A: -11.2 RU

Q: And the RU [7]?
A: -12.9 RU

Q: And the RU [8]?
A: -12 RU

Q: What about the RU [9] of the same binder?
A: -10.1 RU

Q: What about the RU [10] of the same binder?
A: 33.2 RU

Q: What about the RU [11] of the same binder?
A: -6.6 RU

Q: What about the RU [12] of the same binder?
A: -8.5 RU

Q: And the RU [13]?
A: -11.3 RU

Q: What about the RU [14] of the same binder?
A: 30.5 RU

Q: What about the Kd [15] of the same binder?
A: 0.038 nM

Q: And the koff [15]?
A: 3.39e-05 s⁻¹

Q: And the kon [15]?
A: 894000 M⁻¹ s⁻¹
